Laboratory results taken from patent publication EP2336188A1 (Sanofi-Aventis, dated 2011).
Where a chain is given by its changes, count along the chain named. Several values for one entry are separate records, joined by “and”; a condition that tells them apart may be missing. Equal values may be shown once.

T1: human GPVI on platelets (human, UniProt Q9HCN6 21-339)
T1 sequence (looked up): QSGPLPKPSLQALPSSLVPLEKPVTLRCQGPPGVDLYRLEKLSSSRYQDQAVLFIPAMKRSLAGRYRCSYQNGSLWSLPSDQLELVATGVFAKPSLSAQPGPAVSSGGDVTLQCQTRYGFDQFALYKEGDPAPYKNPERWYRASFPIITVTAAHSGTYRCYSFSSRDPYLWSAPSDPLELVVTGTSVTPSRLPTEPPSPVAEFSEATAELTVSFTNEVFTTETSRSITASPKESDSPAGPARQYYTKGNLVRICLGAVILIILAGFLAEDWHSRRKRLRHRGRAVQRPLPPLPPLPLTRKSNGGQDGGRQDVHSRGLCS

B1: humanized anti-GPVI Fab VL1 with VH2 (Fab, V domains shown)
VH: QVQLQESGPGLVAPSQSLSITCTVSGFSLTGYGVNWVRQPPSRGLEWLGMIWGDGSTDYQSTLKSRLSISKDNSKSQVFLKMNSLTTDDTARYYCARDLPMDYWGQGTSVTVSS
VL: DIQMTQSPSSLSASVGGRVTITCKASQDINKYIAWYQHKPGKGPSLLIHYTSTLQPGVPSRFSGSGSGRDYSFSISNLQPEDIATYYCLQYANLLTFGGGTKLEIKR
B2: humanized anti-GPVI Fab VL1 with VH5 (Fab, V domains shown)
VH: B1 VH with Y103E
VL: B1 VL
B3: humanized anti-GPVI Fab VL3 with VH2 (Fab, V domains shown)
VH: B1 VH
VL: B1 VL with N93L
B4: humanized anti-GPVI Fab VL2 with VH2 (Fab, V domains shown)
VH: B1 VH
VL: B1 VL with N93H
B5: humanized anti-GPVI Fab VL1 with VH4 (Fab, V domains shown)
VH: B1 VH with G31Y
VL: B1 VL
B6: humanized anti-GPVI Fab VL3 with VH4 (Fab, V domains shown)
VH: B1 VH with G31Y
VL: B1 VL with N93L
B7: humanized anti-GPVI Fab VL1 with VH1 (Fab, V domains shown)
VH: B1 VH with N73T
VL: B1 VL
B8: humanized anti-GPVI Fab VL1 with VH3 (Fab, V domains shown)
VH: B1 VH with Q1E, Q5L, Q16G, S42G, R43K, T86R, Q106L
VL: B1 VL

target: T1, human GPVI on platelets; assay: cell-based or functional assay

Row | IC50 for inhibition of collagen induced platelet aggregation (human platelet rich plasma) | Binder
1 | 2.3 µg/mL and 2 µg/mL and 1.1 µg/mL | B1
2 | 1.9 µg/mL and 2.3 µg/mL and 1.2 µg/mL | B2
3 | 1.9 µg/mL and 0.9 µg/mL and 2.1 µg/mL | B3
4 | 1.4 µg/mL and 2.4 µg/mL and 2.3 µg/mL | B4
5 | 1.6 µg/mL and 1.8 µg/mL and 1.2 µg/mL | B5
6 | 1 µg/mL and 2.3 µg/mL and 2 µg/mL | B6
7 | 1.5 µg/mL and 2.3 µg/mL | B7
8 | 1.5 µg/mL and 1.7 µg/mL | B8
